From patent publication WO2018102654A1 (dated 2018)

B1: LC2/HC2 humanized antibody (antibody, V domains shown)
VH: QVQLVQSGAEVKKPGATVKISCKASGFNIRDYYLHWVQQAPGKGLEWMGWIDPENGDTEYAPKFQGRVTITADTSTNTAYMELSSLRSEDTAVYYCNVYGIYFMDYWGQGTMVTVSS
VL: DIQLTQSPSSVSASVGDRVTITCRASSSISSNSLHWYQQKPGKAPKLLIYRTSNLQSGVPSRFSGSGSGTDYTLTISSLQPEDFATYYCQQGSSFPRMLTFGQGTKLEIKR
notes: CHO supernate in the ELISA; Protein A purified in the neutralization assay; also called mAbH; GIP mAbH
B2: 10g10 monoclonal antibody (original mouse mAb from hybridoma 10g10) (antibody, V domains shown)
VH: QVQLQESGAELVRSGASVKLSCTASGFNIRDYYLHWIKQRPEQGLEWIGWIDPENGDTEYAPKFQDKATVTADTSSNTAYLQLNSLTSEDTAVYYCNVYGIYFMDYWGQGTTVTVSS
VL: DIQLTQSPSTMAASPGEKITITCSASSSISSNSLHWYQQKPGFSPKLLIYRTSNLASGVPGRFSGSGSGTSYSLTIGTMETEDVATYYCQQGSSFPRMLTFGTGTKLEIKR
notes: Mouse antibody from a hybridoma; also called 10g10 mAb; 10g10 GIP mAb

Target: gastric inhibitory polypeptide (GIP), species not stated
Assay: modified Schild's assay plot, reporter cell line expressing GIP receptors

Chain of gastric inhibitory polypeptide (GIP), species not stated (P09681 52-93): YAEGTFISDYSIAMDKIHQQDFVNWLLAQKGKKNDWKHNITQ

Row | Binder | Kd [nM]
1 | B1 | 2200
2 | B2 | 3200
